Patent US8309523 (VIB VZW, dated 2012)
Changes are numbered by the printed parent chain.

B1: BCL10 (other, UniProt O95999 1-233, looked up)
chain: MEPTAPSLTEEDLTEVKKDALENLRVYLCEKIIAERHFDHLRAKKILSREDTEEISCRTSSRKRAGKLLDYLQENPKGLDTLVESIRREKTQNFLIQKITDEVLKLRNIKLEHLKGLKCSSCEPFPDGATNNLSRSNSDESNFSEKLRASTVMYHPEGESSTTPFFSTNSSLNLPVLEVGRTENTIFSSTTLPRPGDPGAPPLPPDLQLEEEGTCANSSEMFLPLRSRTVSRQ
notes: Co-precipitated from lysates of human cell lines
B2: TRAF6 (other, UniProt Q9Y4K3 1-522, looked up)
chain: MSLLNCENSCGSSQSESDCCVAMASSCSAVTKDDSVGGTASTGNLSSSFMEEIQGYDVEFDPPLESKYECPICLMALREAVQTPCGHRFCKACIIKSIRDAGHKCPVDNEILLENQLFPDNFAKREILSLMVKCPNEGCLHKMELRHLEDHQAHCEFALMDCPQCQRPFQKFHINIHILKDCPRRQVSCDNCAASMAFEDKEIHDQNCPLANVICEYCNTILIREQMPNHYDLDCPTAPIPCTFSTFGCHEKMQRNHLARHLQENTQSHMRMLAQAVHSLSVIPDSGYISEVRNFQETIHQLEGRLVRQDHQIRELTAKMETQSMYVSELKRTIRTLEDKVAEIEAQQCNGIYIWKIGNFGMHLKCQEEEKPVVIHSPGFYTGKPGYKLCMRLHLQLPTAQRCANYISLFVHTMQGEYDSHLPWPFQGTIRLTILDQSEAPVRQNHEEIMDAKPELLAFQRPTIPRNPKGFGYVTFMHLEALRQRTFIKDDTLLVRCEVSTRFDMGSLRREGFQPRSTDAGV
notes: as for B1

Tests used:
Assay in all cases: immunoblots of bio-IPs from Jurkat cells with stable expression
[1] = biological target: T1, MALT1 (wild type, Flag- and Avi-tagged bio-construct) (human, UniProt Q9UDY8 1-824, Avi-tag biotinylated in vivo by co-expressed BirA)
T1 construct: also called paracaspase; bio-IP purified MALT1
T1 sequence (looked up): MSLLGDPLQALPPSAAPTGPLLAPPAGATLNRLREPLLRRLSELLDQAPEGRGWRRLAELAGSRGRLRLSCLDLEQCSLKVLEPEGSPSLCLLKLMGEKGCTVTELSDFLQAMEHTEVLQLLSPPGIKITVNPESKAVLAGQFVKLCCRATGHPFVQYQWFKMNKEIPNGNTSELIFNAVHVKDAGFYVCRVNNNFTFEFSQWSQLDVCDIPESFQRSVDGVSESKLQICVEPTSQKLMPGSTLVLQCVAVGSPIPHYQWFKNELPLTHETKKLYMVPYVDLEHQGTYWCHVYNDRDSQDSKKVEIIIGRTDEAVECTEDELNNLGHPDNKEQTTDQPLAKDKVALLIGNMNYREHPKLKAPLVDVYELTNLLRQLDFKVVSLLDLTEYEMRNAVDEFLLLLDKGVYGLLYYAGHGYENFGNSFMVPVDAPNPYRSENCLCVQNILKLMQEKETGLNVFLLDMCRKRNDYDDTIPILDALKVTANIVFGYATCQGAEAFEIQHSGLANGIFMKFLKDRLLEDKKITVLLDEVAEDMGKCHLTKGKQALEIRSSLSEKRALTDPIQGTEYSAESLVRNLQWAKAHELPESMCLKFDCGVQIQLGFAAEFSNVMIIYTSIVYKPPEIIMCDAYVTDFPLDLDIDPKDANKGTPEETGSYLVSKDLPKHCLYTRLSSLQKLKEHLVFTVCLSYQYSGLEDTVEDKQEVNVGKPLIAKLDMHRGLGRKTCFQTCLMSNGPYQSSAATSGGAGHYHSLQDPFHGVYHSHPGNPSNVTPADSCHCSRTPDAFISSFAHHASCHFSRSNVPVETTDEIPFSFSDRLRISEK

[2] = biological target: T2, MALT1-C464A (bio-tagged) (human, UniProt Q9UDY8 1-824)
T2 construct: also called C464A mutant; C464 mutant
T2 sequence (looked up): T1 sequence (looked up) with C464A

[3] = biological target: T3, MALT1-R149A (bio-tagged) (human, UniProt Q9UDY8 1-824, Avi-tag biotinylated in vivo by co-expressed BirA)
T3 construct: also called R149A mutant
T3 sequence (looked up): T1 sequence (looked up) with R149A

Binder	binding result [1]	binding result [2]	binding result [3]
B1	binds		
B2		binds	binds
